Three molecules from US20260056186A1 (JIANGSU HENGRUI PHARMACEUTICALS, published 2026) can be followed below.

Like-named read-outs stand apart in the source and are kept apart here.

The target of assay [1] is T1, IFNAR1 (human, UniProt P17181 28-557).
T1 sequence (looked up): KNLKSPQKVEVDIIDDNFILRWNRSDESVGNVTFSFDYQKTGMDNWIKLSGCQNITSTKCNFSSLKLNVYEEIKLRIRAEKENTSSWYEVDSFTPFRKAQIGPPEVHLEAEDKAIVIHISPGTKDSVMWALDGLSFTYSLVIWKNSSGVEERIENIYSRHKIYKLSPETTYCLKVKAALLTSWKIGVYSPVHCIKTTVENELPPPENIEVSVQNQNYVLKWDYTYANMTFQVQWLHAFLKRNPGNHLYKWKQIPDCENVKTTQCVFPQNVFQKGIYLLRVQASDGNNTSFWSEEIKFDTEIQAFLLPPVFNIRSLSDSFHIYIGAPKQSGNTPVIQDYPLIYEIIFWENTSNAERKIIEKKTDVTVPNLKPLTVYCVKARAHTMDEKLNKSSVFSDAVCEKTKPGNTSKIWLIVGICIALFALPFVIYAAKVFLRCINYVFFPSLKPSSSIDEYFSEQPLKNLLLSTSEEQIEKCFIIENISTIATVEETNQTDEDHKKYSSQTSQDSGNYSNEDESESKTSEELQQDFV
The assay is described as follows: cell-based or functional assay.

For assay [2], the target named is T1, IFNAR1. The assay is described as follows: cell-based or functional assay. This is another data set of the same source.
Assay [3] deals with T2, recombinant human BAFF (R&D cat: 7537-BF-025/CF) (human, UniProt Q9Y275 134-285). The assay is described as follows: cell-based or functional assay.
Assay [4] deals with T3, recombinant human APRIL (R&D cat: 5860-AP-010/CF) (human, UniProt O75888 105-250, limits assumed).
T3 sequence (looked up): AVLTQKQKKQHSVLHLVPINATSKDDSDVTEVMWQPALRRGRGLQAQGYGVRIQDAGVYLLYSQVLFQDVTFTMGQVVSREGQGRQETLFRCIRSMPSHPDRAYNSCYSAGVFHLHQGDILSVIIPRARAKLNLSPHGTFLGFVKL
Kind of assay: cell-based or functional assay.

The target in assay [5] is T4, APRIL (Acro Biosystems, Cat: APL-H52D1) (UniProt O75888 115-250, limits assumed).
T4 construct: also called ARPIL
T4 sequence (looked up): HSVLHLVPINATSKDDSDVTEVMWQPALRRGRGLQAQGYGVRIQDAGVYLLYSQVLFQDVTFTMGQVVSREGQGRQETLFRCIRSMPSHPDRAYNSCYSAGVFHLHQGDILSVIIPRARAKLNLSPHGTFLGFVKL
The assay is described as follows: ELISA, APRIL coated; reference telitacicept. (In general: In an ELISA, binding on a coated surface is turned into a signal by an enzyme label.)

Assay [6] deals with T4, APRIL (Acro Biosystems, Cat: APL-H52D1). Kind of assay: ELISA, APRIL coated at 1 ug/mL, anti-human Fc-HRP, OD450. The procedure:
The capabilities of fusion proteins B606401, B637302, B746201, and B805201 to bind to BAFF and APRIL were assessed by ELISA as follows:
(§1) BAFF (PeproTech, Cat: 310-13) or ARPIL (Acro Biosystems, Cat: APL-H52D1) was diluted to 1 μg/mL with PBS, and a 96-well plate was coated with the dilution overnight at 4° C. The plate was washed with PBST and blocked with Blocking Buffer (PBST containing 1% BSA) at 37° C. for 1 h. The plate was tapped. The test antibodies were diluted with Blocking Buffer. Incubation was performed at 37° C. for 1.5 h. The plate was washed with PBST. An HRP-mouse anti-human Fc antibody (GenScript, Cat: A01854-200) was diluted with Blocking Buffer. Incubation was performed at 37° C. for 40 min. The plate was washed with PBST. 100 μL of TMB substrate solution (Biopanda, Cat: TMB-S-003) was added, and color development was performed at 37° C. for 3 min. 100 μL of ELISA stop solution (Solarbio, Cat: C1058) was added. OD450 was measured.

Assay [7] deals with T2, recombinant human BAFF (R&D cat: …). The assay is described as follows: cell-based or functional assay. The source holds these as a separate data set.
Assay [8] addresses T5, BAFF (PeproTech, Cat: 310-13) (UniProt Q9Y275 134-285). Kind of assay: ELISA, BAFF coated; reference telitacicept. The procedure: as §1, with “The capabilities of TACI-BCMA fusion proteins (B575701, B575702, B575703, and B575704) to bind to BAFF and APRIL were assessed by ELISA as follows: BAFF (PeproTech,” for “BAFF (PeproTech,”, “96-well plate (Costar, Cat: 3590) was coated” for “96-well plate was coated”
(§2) The capability of B575702 to bind to BAFF was consistent with that of B575704, and their EC₅₀ values decreased to ¼ of that of telitacicept. The capability of B575701 to bind to BAFF was consistent with that of B575703, and their EC₅₀ values decreased to ½ of that of telitacicept.

For assay [9], the target named is T5, BAFF (PeproTech, Cat: 310-13). Kind of assay: ELISA, BAFF coated at 1 ug/mL, anti-human Fc-HRP, OD450. The procedure: as §1, with “The capabilities of TACI-BCMA fusion proteins (B575701, B575702, B575703, and B575704) to bind to BAFF and APRIL were assessed by ELISA as follows: BAFF (PeproTech,” for “BAFF (PeproTech,”, “96-well plate (Costar, Cat: 3590) was coated” for “96-well plate was coated”
as §2

In assay [10] the target is T4, APRIL (Acro Biosystems, Cat: APL-H52D1). The assay is described as follows: ELISA, APRIL coated at 1 ug/mL, anti-human Fc-HRP, OD450. The procedure:
as §1, with “The capabilities of TACI-BCMA fusion proteins (B575701, B575702, B575703, and B575704) to bind to BAFF and APRIL were assessed by ELISA as follows: BAFF (PeproTech,” for “BAFF (PeproTech,”, “96-well plate (Costar, Cat: 3590) was coated” for “96-well plate was coated”
(§3) The capabilities of the 4 fusion proteins to bind to APRIL were all stronger than that of telitacicept, and their EC₅₀ values decreased to ¼ to ⅓ of that of telitacicept.
The source holds these as a separate data set.

For assay [11] the target is unchanged. Kind of assay: ELISA, APRIL coated; reference telitacicept; range told of the 4 fusion proteins, lower end tied to B575702 by Table 5. The procedure: as §1, with “The capabilities of TACI-BCMA fusion proteins (B575701, B575702, B575703, and B575704) to bind to BAFF and APRIL were assessed by ELISA as follows: BAFF (PeproTech,” for “BAFF (PeproTech,”, “96-well plate (Costar, Cat: 3590) was coated” for “96-well plate was coated”
as §3

T5 sequence (Q9Y275 134-285 limits assumed): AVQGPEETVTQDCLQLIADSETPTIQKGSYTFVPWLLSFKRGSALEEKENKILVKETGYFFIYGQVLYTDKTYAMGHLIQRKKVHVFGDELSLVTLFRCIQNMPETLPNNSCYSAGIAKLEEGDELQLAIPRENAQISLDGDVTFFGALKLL
T2 sequence (Q9Y275 134-285 limits assumed): as above

B1: B746201 (other)
heavy: EVQLVQSGAEVKKPGESLKISCKGSGYIFTNYWIAWVRQMPGKGLESMGIIYPGDSDIRYSPSFQGQVTISADKSITTAYLQWSSLKASDTAMYYCARHDIEGFDYWGRGTLVTVSSASTKGPSVFPLAPSSKSTSGGTAALGCLVKDYFPEPVTVSWNSGALTSGVHTFPAVLQSSGLYSLSSVVTVPSSSLGTQTYICNVNHKPSNTKVDKRVEPKSCDKTHTCPPCPAPEFEGGPSVFLFPPKPKDTLMISRTPEVTCVVVDVSHEDPEVKFNWYVDGVEVHNAKTKPREEQYNSTYRVVSVLTVLHQDWLNGKEYKCKVSNKALPASIEKTISKAKGQPREPQVYTLPPSRDELTKNQVSLTCLVKGFYPSDIAVEWESNGQPENNYKTTPPVLDSDGSFFLYSKLTVDKSRWQQGNVFSCSVMHEALHNHYTQKSLSLSPGKGGGGSGGGGSGGGGSMLQMAGQCSQNEYFDSLLHACIPCQLRCSSNTPPLTCQRYCSTSCREEQGEFYDHLLRDCISCASICGQHPKQCAAFCE
light: EIVLTQSPGTLSLSPGERATLSCRASQSVSSSFFAWYQQKPGQAPRLLIYGASSRATGIPDRLSGSGSGTDFTLTITRLEPEDFAVYYCQQYDSSAITFGQGTRLEIKRTVAAPSVFIFPPSDEQLKSGTASVVCLLNNFYPREAKVQWKVDNALQSGNSQESVTEQDSKDSTYSLSSTLTLSKADYEKHKVYACEVTHQGLSSPVTKSFNRGEC
notes: Fusion protein of anifrolumab, TACI-19-16 and BCMA-ECD-2 (C-terminus of the heavy chain)
As to B1, in the assay with IFNAR1 [1], the “IC50, inhibition of IFN-alpha-induced in vitro differentiation of B cells into plasma cells (CD27+ CD38+)” value came to 1.9 nM. The “IC50 (nM), inhibition of the activity of type I interferons (IFN-beta, HEK-Blue IFN-alpha/beta reporter cells)” value with IFNAR1 [2] amounted to 1.64 nM. Besides, in assay [3], the “CD27+ CD38+ plasma cell count, mean value, BAFF + APRIL-induced (both ligands together), drug at 100 nM (IgG1: 2496)” value (“CD27+ CD38+ plasma cell count … (IgG1: 2496)” for short) was 520 cells and the “CD27+ CD38+ plasma cell count, mean value, BAFF + APRIL-induced (both ligands together), drug at 1000 nM (IgG1: 2279)” value (“CD27+ CD38+ plasma cell count … (IgG1: 2279)” below) was determined as 410 cells. Further, in [4], the “CD27+ CD38+ plasma cell count, mean value, BAFF + APRIL-induced (both ligands together), drug at 10 nM (IgG1: 2687)” value is 575 cells; the “CD27+ CD38+ plasma cell count … (IgG1: 2496)” value came out at 520 cells; the “CD27+ CD38+ plasma cell count … (IgG1: 2279)” value amounted to 410 cells. Further, in assay [5], the “EC50 relative to telitacicept” value was determined as 0.333 fold. In assay [6], this molecule showed a concentration for a half-maximal effect (EC50) of 0.179 nM and an Emax of 2.8.

B2: B805201 (other)
heavy: EVQLVQSGAEVKKPGESLKISCKGSGYIFTNYWIAWVRQMPGKGLESMGIIYPGDSDIRYSPSFQGQVTISADKSITTAYLQWSSLKASDTAMYYCARHDIEGFDYWGRGTLVTVSSASTKGPSVFPLAPSSKSTSGGTAALGCLVKDYFPEPVTVSWNSGALTSGVHTFPAVLQSSGLYSLSSVVTVPSSSLGTQTYICNVNHKPSNTKVDKRVEPKSCDKTHTCPPCPAPEFEGGPSVFLFPPKPKDTLMISRTPEVTCVVVDVSHEDPEVKFNWYVDGVEVHNAKTKPREEQYNSTYRVVSVLTVLHQDWLNGKEYKCKVSNKALPASIEKTISKAKGQPREPQVYTLPPSRDELTKNQVSLTCLVKGFYPSDIAVEWESNGQPENNYKTTPPVLDSDGSFFLYSKLTVDKSRWQQGNVFSCSVMHEALHNHYTQKSLSLSPGKGGGGSGGGGSGGGGSSTSCREEQGEFYDHLLRDCISCASICGQHPKQCAAFCE
light: EIVLTQSPGTLSLSPGERATLSCRASQSVSSSFFAWYQQKPGQAPRLLIYGASSRATGIPDRLSGSGSGTDFTLTITRLEPEDFAVYYCQQYDSSAITFGQGTRLEIKRTVAAPSVFIFPPSDEQLKSGTASVVCLLNNFYPREAKVQWKVDNALQSGNSQESVTEQDSKDSTYSLSSTLTLSKADYEKHKVYACEVTHQGLSSPVTKSFNRGEC
notes: Fusion protein of anifrolumab and TACI-19-16 (C-terminus of the heavy chain); also called B80521
As to B2, the “IC50, inhibition of IFN-alpha-induced in vitro differentiation of B cells into plasma cells (CD27+ CD38+)” value with IFNAR1 [1] was found to be 6.21 nM. In addition, the “IC50 (nM), inhibition of the activity of type I interferons (IFN-beta, HEK-Blue IFN-alpha/beta reporter cells)” value with IFNAR1 [2] amounted to 1.63 nM. Also, in [7], the “Flow cytometry proliferating B cell proportion (%), mean value, BAFF-induced, drug at 10 nM (IgG1: 40.15)” value worked out at 20.4%; the “Flow cytometry proliferating B cell proportion (%), mean value, BAFF-induced, drug at 100 nM (IgG1: 40.60)” value was 24.3%; the “Flow cytometry proliferating B cell proportion (%), mean value, BAFF-induced, drug at 1000 nM (IgG1: 33.97)” value is 15%. In assay [3], the “CD27+ CD38+ plasma cell count … (IgG1: 2496)” value worked out at 426 cells and the “CD27+ CD38+ plasma cell count … (IgG1: 2279)” value was 438 cells. Besides, in assay [4], the “CD27+ CD38+ plasma cell count, mean value, BAFF + APRIL-induced (both ligands together), drug at 10 nM (IgG1: 2687)” value was found to be 434 cells; the “CD27+ CD38+ plasma cell count … (IgG1: 2496)” value was 426 cells; the “CD27+ CD38+ plasma cell count … (IgG1: 2279)” value worked out at 438 cells. Moreover, the “EC50 relative to telitacicept” value in assay [5] came out at 0.333 fold. In assay [6], this molecule displayed a half-maximal effective concentration (EC50) of 0.182 nM and an Emax of 2.85.

B3: B575702 (Fc fusion)
chain: MLQMAGQCSQNEYFDSLLHACIPCQLRCSSNTPPLTCQRYCNASVTNSVKGTNALSCRKEQGKFYDHLLRDCISCASICGQHPKQCAYFCENKLRSPGDKTHTCPPCPAPEAEGAPSVFLFPPKPKDTLMISRTPEVTCVVVDVSHEDPEVKFNWYVDGVEVHNAKTKPREEQYNSTYRVVSVLTVLHQDWLNGKEYKCKVSNKALPSSIEKTISKAKGQPREPQVYTLPPSRDELTKNQVSLTCLVKGFYPSDIAVEWESNGQPENNYKTTPPVLDSDGSFFLYSKLTVDKSRWQQGNVFSCSVMHEALHNHYTQKSLSLSPGK
notes: TACI-BCMA fusion protein; also called BCMA-ECD-TACI-d2-Fc
Consider B3, for which the “EC50 relative to telitacicept” value in assay [8] and in assay [11] was 0.25 fold each time. Also, the results for the concentration for a half-maximal effect (EC50) in assay [9] and in assay [10] were 0.166 nM and 0.171 nM, respectively. The Emax was 2.24 nM (as printed) in assay [9] and 2.64 in assay [10].

As usually defined, the EC50 is the concentration needed to bring the measured effect to its halfway point. Higher therefore signals a need for much substance.
